Seven molecules from patent US20230218776A1, “ANTI-NTB-A ANTIBODIES AND RELATED COMPOSITIONS AND METHODS” (SEAGEN INC., priority 2015, published 2023) can be followed below.

Entries after “also recorded” stand apart in the source; their conditions may differ. Read-outs that look alike come from different tables or passages of the source. Where a SMILES comes first, the peptide text is derived from it. [ ]: non-standard residue; d: D form. The star is where a group is joined. Dolaproine = CO[C@@H]([C@@H]1CCCN1)[C@@H](C)C(=O)O; Dil = CC[C@H](C)[C@H](NC)[C@@H](CC(=O)O)OC; X1 = C[C@@H](N*)[C@@H](O)c1ccccc1; NMeV = CN[C@H](C(=O)O)C(C)C

Series [1] concerns resting human T lymphocytes. In words: Cytotoxicity on resting human lymphocytes, Cell-Titer Glo, 96 hours. Format: cell-based. How it is done: (§1) To assess the cytotoxic effects of anti-NTB-A ADCs on resting human T and B lymphocytes, purified cells were seeded into black 96-well assay plates. Cells were then treated with anti-NTB-A ADCs starting at 10 ug/mL titrated down 5-fold for a total of 8 dilution points. For free drug treatment, cells were dosed with either MMAE starting at 1,000 nM or free PBD dimer starting at 100 nM titrated down 5-fold for a total of 8 dilution points. Plates were incubated at 37° C., 5% CO2 for 96 hours then allowed to equilibrate to room temperature. An equal volume of Cell-Titer Glo reagent was added to each well and the plate was incubated an additional 30 minutes at room temperature. Plates were then read on a Perkin Elmer Envision plate reader. Dose effect curves and IC50 values were calculated using GraphPad Prism software.

Series [2] relates to resting human B lymphocytes. The description is as above. Format: cell-based. Particulars: for IC50: 96 hours; for ADC concentration with cytotoxic effect on resting B lymphocytes: resting human B lymphocytes, 96 hour cytotoxicity assay. How it is done:
as §1

Series [3] deals with Normal human T cells. In words: ADCP with monocyte-derived macrophages. Particulars: dilution series starting at 2 μg/mL. The class given is cell-based. The protocol: To assess NTB-A mediated ADCP activity, normal T lymphocytes or tumor cells were labeled with the red fluorescent membrane dye, PKH26, then labeled with antibody or ADC in a 5-point, 10-fold dilution series starting at 2 μg/mL. Cells were then incubated for 30 minutes on ice and washed twice with PBS. Cells were mixed with monocyte-derived macrophages for one hour at 37° C. The cell mixture was then stained with Alexa Fluor 488-conjugated murine anti-CD11b to label macrophages and analyzed by flow cytometry to detect PKH26+CD11b+ double-labeled fluorescent cells. Phagocytic activity was calculated as (percent PKH26+CD11b+)/(percent CD11b+cells) multiplied by one hundred.

Series [4] deals with Normal human T cells. In words: Complement-dependent cytotoxicity (CDC), Sytox Green. Format: cell-based. Particulars: 0.02-50 μg/mL, human serum, 2 hours. The protocol:
(§2) Complement-Dependent Cytotoxicity (CDC): Normal human T cells (All Cells, Alameda, Calif.) or cancer cell lines (ATCC, Manassas, Va.) were labelledlabeled with 5 μM Sytox Green (Life Technologies, Grand Island, N.Y.), then bound with serial a serial dose titrations of anti-human NTB-A h20F3 antibody or PBD dimer ADCies (0.02-50 μg/mL) in RPMI1640 media+1020% human serum (Complement Technology, Tyler, TX or Solomon Park Research Laboratories, Kirkland, Wash. Cells were incubated at 37° C., 5% CO2 for 2 hours, and fluorescence from lysed cells was measured with an Envision plate reader (Perkin Elmer, Waltham, Mass.). Data was expressed as a percentage of maximum cell lysis determined with a positive control of 1% TritonX-100-treated cells (Sigma, ST. Louis, Mo.).
(§3) Three cell types were used for analysis: normal human T cells, WIL2-S cells, and Raji cells. Expression of relevant receptors on each cell type is found in Table 7 and is indicated as number of receptor per cell.

Series [5] relates to Normal human T cells. In words: ADCC, flow cytometry-based assay with NK effector cells. Format: cell-based. As to conditions: NK effector to target 10:1, 4 hours. How it is done:
A flow cytometry-based assay was used to measure ADCC activity on normal human T cells. PKH2-labeled normal human T cell targets were bound with titrations of antibody (0.1 ng/mL-10 μg/mL) and then incubated with effector NK cells at an effector to target ratio of 10:1 for 4 hours at 37° C., 5% CO2. Viability was determined by 7-AAD incorporation as measured on the FACsCalibur flow cytometer (BD BioSciences, San Jose, Calif.).
A general note: Flow cytometry measures light scatter and fluorescence of single cells or particles in a stream.

The next series concerns cynomolgus-NTB-A. In words: Binding to 293-F17 cells overexpressing cynomolgus-NTB-A, flow cytometry. As to conditions: 293-F17/cynomolgus-NTB-A cells; 20 μg/mL antibody. How it is done: (§4) Dose titrations of the anti-human NTB-A antibodies conjugated to Alexa Fluor 647 (, h20F3_HDLD-AF647) were used to generate saturation binding curves. Antigen positive Ramos cells were plated at 1×10^5 cells per well in a 96 well V-bottom plate (Thermo Scientific, Rochester, N.Y.). Three-fold serial dilutions of 2× concentrated antibodies were prepared in FACs buffer (PBS+2% fetal bovine serum) and were added to the cells in duplicate. The antibody solutions were incubated with cells for 1 hour on ice, protected from light. The cells were washed twice with FACs buffer and analyzed on the LSRII flow cytometer (BD BioSciences, San Jose, Calif.). KD values were determined with GraphPad Prism software (La Jolla, Calif.). Anti-human NTB-A antibodies h20F3_HDLD and chimeric 20F3 were tested for binding to 293-F17 cells overexpressing cynomolgus-NTB-A. 293-F17/cynomolgus-NTB-A cells were plated at 5×10^5 cells/well in FACS buffer (PBS+2% fetal bovine serum+0.02% azide) and incubated with 20 μg/mL antibody for 30 minutes on ice. The cells were washed twice and stained with 30 μg/mL goat anti-human IgG-PE (Jackson ImmunoResearch, West Grove, Pa.) for 30 minutes, on ice and protected from light. Cells were again washed twice with FACs buffer. Stained cells were analyzed on the FACs Calibur flow cytometer (BD BioSciences, San Jose, Calif.).
cynomolgus-NTB-A, sequence (as listed by the source): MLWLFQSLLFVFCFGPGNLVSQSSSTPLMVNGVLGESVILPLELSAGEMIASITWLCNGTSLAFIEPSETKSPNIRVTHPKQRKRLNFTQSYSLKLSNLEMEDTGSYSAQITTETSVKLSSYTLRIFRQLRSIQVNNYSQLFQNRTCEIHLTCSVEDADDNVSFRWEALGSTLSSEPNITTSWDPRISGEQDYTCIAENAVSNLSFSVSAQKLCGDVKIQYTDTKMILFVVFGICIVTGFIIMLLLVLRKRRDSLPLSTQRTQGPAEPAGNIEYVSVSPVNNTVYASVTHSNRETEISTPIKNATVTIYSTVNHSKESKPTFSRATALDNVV

The next series addresses T1, human NTB-A (Homo sapiens, UniProt Q96DU3).
T1 construct: endogenous in cells; host or cells: Ramos cells
T1 sequence (Q96DU3 22-332): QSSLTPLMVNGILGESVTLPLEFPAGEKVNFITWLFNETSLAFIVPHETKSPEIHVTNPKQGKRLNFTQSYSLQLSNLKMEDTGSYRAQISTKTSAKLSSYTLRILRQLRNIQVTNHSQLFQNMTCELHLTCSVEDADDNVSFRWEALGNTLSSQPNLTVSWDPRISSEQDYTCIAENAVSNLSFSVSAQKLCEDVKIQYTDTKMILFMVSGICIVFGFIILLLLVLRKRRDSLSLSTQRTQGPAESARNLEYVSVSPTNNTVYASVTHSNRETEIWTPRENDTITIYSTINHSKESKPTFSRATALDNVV
In words: Saturation binding (Kd) of AF647-labelled antibody on Ramos cells. As to conditions: 1 hour on ice. The protocol:
as §4

In series [6] the test system is WIL2-S cell line. In words: ADCC, chromium-51 release with NK effector cells. Format: cell-based. Particulars: NK effector to target 10:1, 4 hours. The protocol: Antibody-Dependent Cellular Cytotoxicity (ADCC) Activity Assay: ADCC cytotoxic activity was measured by chromium-51 release in which effector natural killer (NK) cells kill (lyse) target cells via binding to the antibody or ADC on the target cells. WIL2-S cells were labeled with chromium-51, bound with antibody (0.1 ng/mL-10 μg/mL), and then incubated with NK cells at an effector to target ratio of 10:1 for 4 hours at 37° C., 5% CO2. Supernatant was removed to a filter plate and chromium-51 counts were measured with a TopCount (Perkin Elmer, Waltham, Mass.). Data was expressed as a percentage of maximum specific cell lysis determined with a positive control of 1% TritonX-100-treated cells (Sigma, St. Louis, Mo.).

In the next series the test system is Raji cell line. In words: Complement-dependent cytotoxicity (CDC), Sytox Green. The class given is cell-based. As to conditions: 0.02-50 μg/mL, human serum, 2 hours. The protocol:
as §2, §3

Series [7] concerns WIL2-S cell line. Described as above. Format: cell-based. As to conditions: 0.02-50 μg/mL, human serum, 2 hours. How it is done:
as §2, §3

Where [8] appears, read: Donor 4, T cell, NTB-A receptor # 5,547.
Setting [9] is: Donor 5, T cell, NTB-A receptor # 7,979.
The mark [10] stands for this setting: Donor 6, T cell, NTB-A receptor # 5,522.
Setting [11] is: Donor 1, B cell, NTB-A receptor # 6,811.
The mark [12] stands for this setting: Donor 2, B cell, NTB-A receptor # 11,037.
The mark [13] stands for this setting: Donor 3, B cell, NTB-A receptor # 8,771.

The term IC50 denotes the concentration needed to halve the response being measured. The Kd is the constant that tells how readily two partners part at equilibrium. Lower therefore signals a tighter complex.

Consider `CC[C@H](C)[C@@H]([C@@H](CC(=O)N1CCC[C@H]1[C@H](OC)[C@@H](C)C(=O)N[C@H](C)[C@@H](O)c1ccccc1)OC)N(C)C(=O)[C@@H](NC(=O)[C@@H](NC)C(C)C)C(C)C` [Free MMAE, monomethyl auristatin E, reference compound] (H-[NMeV]V[Dil][Dolaproine]-X1), for which the IC50 in series [1] (Donor 4, T cell, NTB-A receptor # 5,547, free drug, read-out: IC50) is more than 1000 nM; in [1] (Donor 5, T cell, NTB-A receptor # 7,979, free drug, read-out: IC50) it was more than 1000 nM; in series [1] (Donor 6, T cell, NTB-A receptor # 5,522, free drug, read-out: IC50), more than 1000 nM; in [2] (Donor 1, B cell, NTB-A receptor # 6,811, free drug, read-out: IC50), 3 nM; in series [2] (Donor 2, B cell, NTB-A receptor # 11,037, free drug, read-out: IC50), 2 nM; in series [2] (Donor 3, B cell, NTB-A receptor # 8,771, free drug, read-out: IC50), 5 nM.
Turning to “Campath: anti-CD52 antibody control [reference compound]”, the “ADCP Maximum % Phagocytosis” value in the series with Normal human T cells [3] was 57%. Also, the “CDC Maximum % Specific Cell Lysis” value in the series on Normal human T cells [4] is reported as 108 ± 5.2%. In the series with Normal human T cells [5], the “ADCC Maximum % Specific Cell Lysis” value turned out to be 60 ± 3.5%.

B1: c20F3-1910(2) (conjugate)
VH: QIQLVQSGPELKKPGETVKISCKASGYTFTNYGMNWVKQAPGKDLKWMGWINTYSGEPRYADDFKGRFAFSLEKSANTAYLQINNLKNEDMATYFCARDYGRWYFDVWGTGTTVTVSS
VL: QIVLSQSPAILSASPGEKVTMTCRASSSVSHMHWYQQKPGSSPKPWIYATSNLASGVPARFSGSGSGTSYSLTISRVEAEDAATYYCQQWSSTPRTFGGGTKLEIKR
Take B1: the half-inhibitory concentration (IC50) in [1] (setting [8]) is on record as >10,000 ng/mL; in series [1] (setting [9]), >10,000 ng/mL; in [1] (setting [10]) it was >10,000 ng/mL; in series [2] (setting [11]), 1,468 ng/mL; in [2] (setting [12]), 1,270 ng/mL; in series [2] (setting [13]) it was 3,421 ng/mL. Besides, the “ADC concentration with cytotoxic effect on resting B lymphocytes” value in [2] is > 1,000 ng/mL.

B2: c20F3-vcMMAE(4): chimeric 20F3 vcMMAE auristatin ADC, drug load 4 (conjugate)
VH: QIQLVQSGPELKKPGETVKISCKASGYTFTNYGMNWVKQAPGKDLKWMGWINTYSGEPRYADDFKGRFAFSLEKSANTAYLQINNLKNEDMATYFCARDYGRWYFDVWGTGTTVTVSS
VL: QIVLSQSPAILSASPGEKVTMTCRASSSVSHMHWYQQKPGSSPKPWIYATSNLASGVPARFSGSGSGTSYSLTISRVEAEDAATYYCQQWSSTPRTFGGGTKLEIKR
modifications: non-natural residues
Take B2: the IC50 in [1] (setting [8]), in series [1] (setting [9]), in series [1] (setting [10]), in series [2] (setting [11]), in series [2] (setting [12]) and in series [2] (setting [13]) was >10,000 ng/mL in each case. Moreover, the “ADC concentration with cytotoxic effect on resting B lymphocytes” value in series [2] was “no cytotoxic effect”.

B3: chimeric: chimeric form of the 20F3 anti-NTB-A antibody (antibody, V domains shown)
VH: QIQLVQSGPELKKPGETVKISCKASGYTFTNYGMNWVKQAPGKDLKWMGWINTYSGEPRYADDFKGRFAFSLEKSANTAYLQINNLKNEDMATYFCARDYGRWYFDVWGTGTTVTVSS
VL: QIVLSQSPAILSASPGEKVTMTCRASSSVSHMHWYQQKPGSSPKPWIYATSNLASGVPARFSGSGSGTSYSLTISRVEAEDAATYYCQQWSSTPRTFGGGTKLEIKR
For the molecule B3, the Cyno binding entry in the series on cynomolgus-NTB-A is reported as “positive”.

B4: HDLD: humanized 20F3: HD (SEQ ID NO:8) with LD (SEQ ID NO:18); preferred variant (antibody, V domains shown)
VH: QIQLVQSGSELKKPGASVKVSCKASGYTFTNYGMNWVRQAPGQDLKWMGWINTYSGEPRYADDFKGRFVFSLDKSVNTAYLQISSLKAEDTAVYYCARDYGRWYFDVWGQGTTVTVSS
VL: QIVLSQSPATLSLSPGERATMSCRASSSVSHMHWYQQKPGQAPRPWIYATSNLASGVPARFSGSGSGTDYTLTISSLEPEDFAVYYCQQWSSTPRTFGGGTKVEIKR
modifications: mature heavy chain variable region of humanized 20F3 HD; mature light chain variable region of humanized 20F3 LD
notes: preferred variant
As for B4, in the series with cynomolgus-NTB-A, the Cyno binding entry is “retained binding; also recorded: positive”. Besides, the Kd with human NTB-A was approximately 2 nM.

B5: h20F3wt: humanized 20F3 HDLD antibody with wild-type IgG1 (antibody, V domains shown)
VH: QIQLVQSGSELKKPGASVKVSCKASGYTFTNYGMNWVRQAPGQDLKWMGWINTYSGEPRYADDFKGRFVFSLDKSVNTAYLQISSLKAEDTAVYYCARDYGRWYFDVWGQGTTVTVSS
VL: QIVLSQSPATLSLSPGERATMSCRASSSVSHMHWYQQKPGQAPRPWIYATSNLASGVPARFSGSGSGTDYTLTISSLEPEDFAVYYCQQWSSTPRTFGGGTKVEIKR
Consider B5, for which the “ADCC Maximum % Specific Cell Lysis” value with WIL2-S cell line [6] was 21 ± 0.6%; in the series on Normal human T cells [5], 38 ± 0.8%. In addition, the “CDC Maximum % Specific Cell Lysis” value was 1.3 ± 2.8% in the series with Normal human T cells [4], 2.1 ± 0.6% in the series on Raji cell line and 0.0 ± 0.0% in the series on WIL2-S cell line [7].
